Measured values published in US20140271457A1 (AbbVie / Abbott, published 2014).

Molecular target: Recombinant Human IL-13 (human, UniProt P35225 35-146, limits assumed)
Assay: cell-based or functional assay

Sequence of Recombinant Human IL-13 (P35225 35-146 limits assumed): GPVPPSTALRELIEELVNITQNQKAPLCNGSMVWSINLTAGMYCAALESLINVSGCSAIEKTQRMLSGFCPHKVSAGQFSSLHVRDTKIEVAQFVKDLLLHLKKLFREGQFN

B1: DVD2791 (bispecific antibody, human IgG1, kappa)
heavy: not shown
light: DIQMTQSPSSLSASVGDRVTISCRASQDIRNYLNWYQQKPGKAPKLLIFYTSKLHSGVPSRFSGSGSGTDYTLTISSLQPEDIATYYCQQGLTPPLTFGGGTKVEIKRTVAAPSVFIFPPDIQMTQSPSSLSASVGDRVTITCRASQDISQYLNWYQQKPGKAPKLLIYYTSRLQSGVPSRFSGSGSGTDFTLTISSLQPEDFATYFCQQGNTWPPTFGQGTKLEIKRTVAAPSVFIFPPSDEQLKSGTASVVCLLNNFYPREAKVQWKVDNALQSGNSQESVTEQDSKDSTYSLSSTLTLSKADYEKHKVYACEVTHQGLSSPVTKSFNRGEC
IL-13 Neutralization Assay IC50: 0.245 nM

B2: DVD3016 (bispecific antibody, human IgG1, kappa)
heavy: not shown
light: DIQMTQSPSSLSASVGDRVTISCRASQDIRNYLNWYQQKPGKAPKLLIFYTSKLHSGVPSRFSGSGSGTDYTLTISSLQPEDIATYYCQQGLTPPLTFGGGTKVEIKRTVAAPSVFIFPPDIQMTQSPSSLSASVGDRVTITCRASQDIENYLNWYQQKPGKAPKLLIYYTSRLQSGVPSRFSGSGSGTDFTLTISSLQPEDFATYFCQQGNTQPPTFGQGTKLEIKRTVAAPSVFIFPPSDEQLKSGTASVVCLLNNFYPREAKVQWKVDNALQSGNSQESVTEQDSKDSTYSLSSTLTLSKADYEKHKVYACEVTHQGLSSPVTKSFNRGEC
IL-13 Neutralization Assay IC50: 0.081 nM

B3: DVD3083 (bispecific antibody, human IgG1, kappa)
heavy: not shown
light: DIQMTQSPSSLSASVGDRVTITCRASQLVSSAVAWYQQKPGKAPKLLIYWASARHTGVPSRFSGSGSGTDFTLTISSLQPEDFATYYCQQHYKTPFTFGQGTKLEIKRGGSGGGGSGDVVMTQSPLSLPVTLGQPASISCRSSQSLVHSHGNTYLHWYQQRPGQSPRLLIYTVSNRFSGVPDRFSGSGSGTDFTLKISRVEAEDVGVYYCSQSTHVPYTFGGGTKVEIKRTVAAPSVFIFPPSDEQLKSGTASVVCLLNNFYPREAKVQWKVDNALQSGNSQESVTEQDSKDSTYSLSSTLTLSKADYEKHKVYACEVTHQGLSSPVTKSFNRGEC
IL-13 Neutralization Assay IC50: 0.098 nM

B4: DVD3093 (bispecific antibody)
heavy: not shown
light: DIQMTQSPSSLSASVGDRVTITCKASQLVSSAVAWYQQKPGKAPKLLIYWASTLHTGVPSRFSGSGSGTDFTLTISSLQPEDFATYYCQQHYRTPFTFGQGTKLEIKRGGSGGGGSGDVVMTQSPLSLPVTLGQPASISCRSSQSLVHSHGNTYLHWYQQRPGQSPRLLIYTVSNRFSGVPDRFSGSGSGTDFTLKISRVEAEDVGVYYCSQSTHVPYTFGGGTKVEIKRTVAAPSVFIFPPSDEQLKSGTASVVCLLNNFYPREAKVQWKVDNALQSGNSQESVTEQDSKDSTYSLSSTLTLSKADYEKHKVYACEVTHQGLSSPVTKSFNRGEC
IL-13 Neutralization Assay IC50: 0.067 nM

B5: DVD3086 (bispecific antibody, human IgG1, kappa)
heavy: not shown
light: DIQMTQSPSSLSASVGDRVTITCRASQLVSSAVAWYQQKPGKAPKLLIYWASARHTGVPSRFSGSGSGTDFTLTISSLQPEDFATYYCQQHYKTPFTFGQGTKLEIKRTVAAPSVFIFPPDVVMTQSPLSLPVTLGQPASISCRSSQSLVHSHGNTYLHWYQQRPGQSPRLLIYTVSNRFSGVPDRFSGSGSGTDFTLKISRVEAEDVGVYYCSQSTHVPYTFGGGTKVEIKRTVAAPSVFIFPPSDEQLKSGTASVVCLLNNFYPREAKVQWKVDNALQSGNSQESVTEQDSKDSTYSLSSTLTLSKADYEKHKVYACEVTHQGLSSPVTKSFNRGEC
IL-13 Neutralization Assay IC50: 0.12 nM

B6: DVD3096 (bispecific antibody)
heavy: not shown
light: DIQMTQSPSSLSASVGDRVTITCKASQLVSSAVAWYQQKPGKAPKLLIYWASTLHTGVPSRFSGSGSGTDFTLTISSLQPEDFATYYCQQHYRTPFTFGQGTKLEIKRTVAAPSVFIFPPDVVMTQSPLSLPVTLGQPASISCRSSQSLVHSHGNTYLHWYQQRPGQSPRLLIYTVSNRFSGVPDRFSGSGSGTDFTLKISRVEAEDVGVYYCSQSTHVPYTFGGGTKVEIKRTVAAPSVFIFPPSDEQLKSGTASVVCLLNNFYPREAKVQWKVDNALQSGNSQESVTEQDSKDSTYSLSSTLTLSKADYEKHKVYACEVTHQGLSSPVTKSFNRGEC
IL-13 Neutralization Assay IC50: 0.064 nM

B7: DVD3013 (bispecific antibody, human IgG1, kappa)
heavy: not shown
light: DIQMTQSPSSLSASVGDRVTISCRASQDIRNYLNWYQQKPGKAPKLLIFYTSKLHSGVPSRFSGSGSGTDYTLTISSLQPEDIATYYCQQGLTPPLTFGGGTKVEIKRGGSGGGGSGDIQMTQSPSSLSASVGDRVTITCRASQDIENYLNWYQQKPGKAPKLLIYYTSRLQSGVPSRFSGSGSGTDFTLTISSLQPEDFATYFCQQGNTQPPTFGQGTKLEIKRTVAAPSVFIFPPSDEQLKSGTASVVCLLNNFYPREAKVQWKVDNALQSGNSQESVTEQDSKDSTYSLSSTLTLSKADYEKHKVYACEVTHQGLSSPVTKSFNRGEC
IL-13 Neutralization Assay IC50: 0.077 nM

B8: DVD2789 (bispecific antibody, human IgG1, kappa)
heavy: not shown
light: DIQMTQSPSSLSASVGDRVTISCRASQDIRNYLNWYQQKPGKAPKLLIFYTSKLHSGVPSRFSGSGSGTDYTLTISSLQPEDIATYYCQQGLTPPLTFGGGTKVEIKRTVAAPDIQMTQSPSSLSASVGDRVTITCRASQDISQYLNWYQQKPGKAPKLLIYYTSRLQSGVPSRFSGSGSGTDFTLTISSLQPEDFATYFCQQGNTWPPTFGQGTKLEIKRTVAAPSVFIFPPSDEQLKSGTASVVCLLNNFYPREAKVQWKVDNALQSGNSQESVTEQDSKDSTYSLSSTLTLSKADYEKHKVYACEVTHQGLSSPVTKSFNRGEC
IL-13 Neutralization Assay IC50: 0.078 nM

B9: DVD3014 (bispecific antibody, human IgG1, kappa)
heavy: not shown
light: DIQMTQSPSSLSASVGDRVTISCRASQDIRNYLNWYQQKPGKAPKLLIFYTSKLHSGVPSRFSGSGSGTDYTLTISSLQPEDIATYYCQQGLTPPLTFGGGTKVEIKRTVAAPDIQMTQSPSSLSASVGDRVTITCRASQDIENYLNWYQQKPGKAPKLLIYYTSRLQSGVPSRFSGSGSGTDFTLTISSLQPEDFATYFCQQGNTQPPTFGQGTKLEIKRTVAAPSVFIFPPSDEQLKSGTASVVCLLNNFYPREAKVQWKVDNALQSGNSQESVTEQDSKDSTYSLSSTLTLSKADYEKHKVYACEVTHQGLSSPVTKSFNRGEC
IL-13 Neutralization Assay IC50: 0.132 nM

B10: DVD2792 (bispecific antibody, human IgG1, kappa)
heavy: not shown
light: DIQMTQSPSSLSASVGDRVTISCRASQDIRNYLNWYQQKPGKAPKLLIFYTSKLHSGVPSRFSGSGSGTDYTLTISSLQPEDIATYYCQQGLTPPLTFGGGTKVEIKRTVAAPDIQMTQSPSSLSASVGDRVTITCRASQDISQYLNWYQQKPGKAPKLLIYYTSRLQSGVPSRFSGSGSGTDFTLTISSLQPEDFATYFCQQGNTWPPTFGQGTKLEIKRTVAAPSVFIFPPSDEQLKSGTASVVCLLNNFYPREAKVQWKVDNALQSGNSQESVTEQDSKDSTYSLSSTLTLSKADYEKHKVYACEVTHQGLSSPVTKSFNRGEC
IL-13 Neutralization Assay IC50: 0.361 nM

B11: DVD3017 (bispecific antibody, human IgG1, kappa)
heavy: not shown
light: DIQMTQSPSSLSASVGDRVTISCRASQDIRNYLNWYQQKPGKAPKLLIFYTSKLHSGVPSRFSGSGSGTDYTLTISSLQPEDIATYYCQQGLTPPLTFGGGTKVEIKRTVAAPDIQMTQSPSSLSASVGDRVTITCRASQDIENYLNWYQQKPGKAPKLLIYYTSRLQSGVPSRFSGSGSGTDFTLTISSLQPEDFATYFCQQGNTQPPTFGQGTKLEIKRTVAAPSVFIFPPSDEQLKSGTASVVCLLNNFYPREAKVQWKVDNALQSGNSQESVTEQDSKDSTYSLSSTLTLSKADYEKHKVYACEVTHQGLSSPVTKSFNRGEC
IL-13 Neutralization Assay IC50: 0.111 nM

B12: AB399 (antibody, V domains shown)
VH: EVQLVQSGAEVKKPGASVKVSCKASGYTFTSYWMHWVRQAPGQGLEWIGNINPKGGSNIYNEKFQGRVTMTRDTSISTAYMELSRLRSDDTAVYYCARLDYFGDSFDLWGQGTTVTVSS
VL: DIQMTQSPSSLSASVGDRVTITCRASQGIRNYLNWYQQKPGKAPKLLIYYASNLEVGVPSRFSGSGSGTDYTLTISSLQPEDFATYYCQQDNRFPYTFGGGTKVEIKR
IL-13 Neutralization Assay IC50: 0.075 nM

B13: DVD3084 (bispecific antibody, human IgG1, kappa)
heavy: not shown
light: DIQMTQSPSSLSASVGDRVTITCRASQLVSSAVAWYQQKPGKAPKLLIYWASARHTGVPSRFSGSGSGTDFTLTISSLQPEDFATYYCQQHYKTPFTFGQGTKLEIKRTVAAPDVVMTQSPLSLPVTLGQPASISCRSSQSLVHSHGNTYLHWYQQRPGQSPRLLIYTVSNRFSGVPDRFSGSGSGTDFTLKISRVEAEDVGVYYCSQSTHVPYTFGGGTKVEIKRTVAAPSVFIFPPSDEQLKSGTASVVCLLNNFYPREAKVQWKVDNALQSGNSQESVTEQDSKDSTYSLSSTLTLSKADYEKHKVYACEVTHQGLSSPVTKSFNRGEC
IL-13 Neutralization Assay IC50: 0.587 nM

B14: DVD3087 (bispecific antibody, human IgG1, kappa)
heavy: not shown
light: DIQMTQSPSSLSASVGDRVTITCRASQLVSSAVAWYQQKPGKAPKLLIYWASARHTGVPSRFSGSGSGTDFTLTISSLQPEDFATYYCQQHYKTPFTFGQGTKLEIKRTVAAPDVVMTQSPLSLPVTLGQPASISCRSSQSLVHSHGNTYLHWYQQRPGQSPRLLIYTVSNRFSGVPDRFSGSGSGTDFTLKISRVEAEDVGVYYCSQSTHVPYTFGGGTKVEIKRTVAAPSVFIFPPSDEQLKSGTASVVCLLNNFYPREAKVQWKVDNALQSGNSQESVTEQDSKDSTYSLSSTLTLSKADYEKHKVYACEVTHQGLSSPVTKSFNRGEC
IL-13 Neutralization Assay IC50: 0.082 nM

B15: DVD3097 (bispecific antibody)
heavy: not shown
light: DIQMTQSPSSLSASVGDRVTITCKASQLVSSAVAWYQQKPGKAPKLLIYWASTLHTGVPSRFSGSGSGTDFTLTISSLQPEDFATYYCQQHYRTPFTFGQGTKLEIKRTVAAPDVVMTQSPLSLPVTLGQPASISCRSSQSLVHSHGNTYLHWYQQRPGQSPRLLIYTVSNRFSGVPDRFSGSGSGTDFTLKISRVEAEDVGVYYCSQSTHVPYTFGGGTKVEIKRTVAAPSVFIFPPSDEQLKSGTASVVCLLNNFYPREAKVQWKVDNALQSGNSQESVTEQDSKDSTYSLSSTLTLSKADYEKHKVYACEVTHQGLSSPVTKSFNRGEC
IL-13 Neutralization Assay IC50: 0.072 nM

B16: DVD3094 (bispecific antibody)
heavy: not shown
light: DIQMTQSPSSLSASVGDRVTITCKASQLVSSAVAWYQQKPGKAPKLLIYWASTLHTGVPSRFSGSGSGTDFTLTISSLQPEDFATYYCQQHYRTPFTFGQGTKLEIKRTVAAPDVVMTQSPLSLPVTLGQPASISCRSSQSLVHSHGNTYLHWYQQRPGQSPRLLIYTVSNRFSGVPDRFSGSGSGTDFTLKISRVEAEDVGVYYCSQSTHVPYTFGGGTKVEIKRTVAAPSVFIFPPSDEQLKSGTASVVCLLNNFYPREAKVQWKVDNALQSGNSQESVTEQDSKDSTYSLSSTLTLSKADYEKHKVYACEVTHQGLSSPVTKSFNRGEC
IL-13 Neutralization Assay IC50: 0.444 nM
